{
  "source": "patent US20160130351A1",
  "about": "(NOVIMMUNE S A, published 2016)",
  "binders": {"B1": {"name": "NI-1201 wild type (NI-1201-WT) antibody (antibody, V domains shown)", "VH": "QVQLVQSGAEVKKPGSSVKVSCKASGGTFSSYAISWVRQAPGQGLEWMGGIIPLFDTTKYAQQFQGRVTITADESTSTAYMELSSLRSEDTAVFYCARDRDILTDYYPMGGMDVWGQGTTVTVSS", "VL": "AIQLTQSPSSLSASVGDRVTITCRASQGISSVLAWYQQKPGKAPKLLIYDASSLESGVPSRFSGSGSGTDFTLTISSLQPEDFATYYCQQSNSYPLTFGGGTKVEIKR", "notes": "Fully human monoclonal IgG (captured by anti-human IgG Fc in Biacore); also called 39B9 VL1"}},
  "key": {"[1]": {"molecular_target": "T1, membrane-bound human IL-6R (human, UniProt P08887 20-468)", "T1 construct": "whole, on cells; also called mIL-6R; membrane IL-6R", "T1 sequence (looked up)": "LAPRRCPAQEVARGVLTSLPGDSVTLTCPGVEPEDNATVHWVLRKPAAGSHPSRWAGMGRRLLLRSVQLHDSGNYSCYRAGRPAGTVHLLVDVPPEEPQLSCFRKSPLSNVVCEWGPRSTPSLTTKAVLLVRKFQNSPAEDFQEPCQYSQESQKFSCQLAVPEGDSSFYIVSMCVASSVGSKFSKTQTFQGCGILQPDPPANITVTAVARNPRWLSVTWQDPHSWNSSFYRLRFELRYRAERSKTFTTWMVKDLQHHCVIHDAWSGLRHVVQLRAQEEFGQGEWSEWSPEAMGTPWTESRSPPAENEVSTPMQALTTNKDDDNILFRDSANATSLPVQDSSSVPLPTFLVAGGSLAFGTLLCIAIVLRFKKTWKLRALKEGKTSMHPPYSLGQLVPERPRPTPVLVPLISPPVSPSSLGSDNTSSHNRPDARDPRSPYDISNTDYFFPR", "assay": "flow cytometry on HepG2 cells, goat anti-human IgG Alexa Fluor 647", "experimental": "Cell surface staining is performed on HepG2 cells with different doses of mAbs. […] Each experiment was performed in triplicates."}, "FULLY MOUSE IL-6R": {"molecular_target": "T2, FULLY MOUSE IL-6R (mouse, UniProt P22272)", "T2 construct": "also called chimeric receptor #5", "T2 sequence (receptor chain, looked up)": "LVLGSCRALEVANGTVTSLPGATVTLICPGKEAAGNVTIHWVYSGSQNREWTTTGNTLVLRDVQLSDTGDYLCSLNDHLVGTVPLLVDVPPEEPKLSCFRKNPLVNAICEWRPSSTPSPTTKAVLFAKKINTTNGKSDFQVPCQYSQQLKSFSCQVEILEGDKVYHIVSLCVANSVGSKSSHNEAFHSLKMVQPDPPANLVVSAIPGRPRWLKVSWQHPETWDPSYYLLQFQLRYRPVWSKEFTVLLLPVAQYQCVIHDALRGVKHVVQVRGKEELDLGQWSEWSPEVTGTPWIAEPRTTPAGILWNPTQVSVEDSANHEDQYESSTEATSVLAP", "assay": "flow cytometry on PEAK cells displaying the IL-6R variant, goat anti-human IgG Alexa Fluor 647", "text": "(§1) An overlap extension PCR strategy was used to generate coding sequences specifying huIL-6R/mouseIL-6R chimeric proteins (FIG. 6A) and mouse IL-6R proteins containing human amino acid substitutions in D3 domains (FIG. 6B). Partially overlapping mutagenic oligonucleotide primers were used for PCR amplification of N- and C-terminal sequences on either side of huIL-6R/mouse IL-6R junctions or substituted regions, followed by gel isolation and annealing of the denatured PCR products. Full length PCR products were then digested by EcoRI and BglII and ligated into a pDISPLAY™ vector (Invitrogen). PEAK cells were grown in DMEM medium supplemented with 10% fetal calf serum and 4 mM L-glutamine. Cells were plated 12 to 24 h before transfection to have 40-50% confluency in 6 well plates. Transfections of pDISPLAY™ vectors (Invitrogen) were carried out by lipofection using TransIT® LT1 reagent (MirusBio) according manufacturer's specifications. Cells were grown for 48 h before harvesting and analysis by flow cytometry.\n(§2) Cell surface staining was performed on PEAK cells displaying each variant of IL-6R and analyzed by flow cytometry (FIG. 6B-D). Cell surface expression of each chimeric IL-6R was assessed using an anti-human-CD126 PE or an anti-mouse CD126-PE antibody (BD Pharmingen)."}, "MUTANT 1": {"molecular_target": "T3, MUTANT 1 (mouse, UniProt P22272)", "T3 construct": "also called mouse IL-6R with human residues in D3, mutant 1", "T3 sequence (receptor chain, looked up)": "T2 sequence (receptor chain, looked up) with L200I, V201T, S203T, I205V, P206A, G207R, R208N", "assay": "flow cytometry on PEAK cells displaying the mutated mouse IL-6R, goat anti-human IgG Alexa Fluor 647", "text": "as §1, §2"}, "MUTANT 3": {"molecular_target": "T4, MUTANT 3 (mouse, UniProt P22272)", "T4 construct": "also called mouse IL-6R with human residues in D3, mutant 3", "T4 sequence (receptor chain, looked up)": "T2 sequence (receptor chain, looked up) with V245T, L246W, L247M, L248V, P249K, V250D, A251L", "assay": "flow cytometry on PEAK cells displaying the mutated mouse IL-6R, goat anti-human IgG Alexa Fluor 647", "text": "as §1, §2"}, "MUTANT 5": {"molecular_target": "T5, MUTANT 5 (mouse, UniProt P22272)", "T5 construct": "also called mouse IL-6R with human residues in D3, mutant 5", "T5 sequence (receptor chain, looked up)": "T2 sequence (receptor chain, looked up) with L276F, D277G, L278Q, Q280E", "assay": "flow cytometry on PEAK cells displaying the mutated mouse IL-6R, goat anti-human IgG Alexa Fluor 647", "text": "as §1, §2"}},
  "note": "Residue numbers refer to the chain shown, from its start.",
  "data": [
    {"binder": "B1", "values": [
      {"measurement": "EC50 (read off the curve)", "setting": "[1]", "value": "~0.2", "unit": "µg/mL"},
      {"measurement": "binding result", "setting": "FULLY MOUSE IL-6R", "value": "no binding"},
      {"measurement": "binding result", "setting": "MUTANT 1", "value": "no binding"},
      {"measurement": "binding result", "setting": "MUTANT 3", "value": "no binding"},
      {"measurement": "binding result", "setting": "MUTANT 5", "value": "no binding"}
    ]}
  ]
}
